Data taken from patent publication US20030017991.

Target: APP695 with C-terminal dilysine and the mutation KM-DA594-597 to SYEA594-597, expressed in HEK 293 derivative cells, P05067
Sequence (P05067 whole entry, looked up, change not shown, tested part not stated): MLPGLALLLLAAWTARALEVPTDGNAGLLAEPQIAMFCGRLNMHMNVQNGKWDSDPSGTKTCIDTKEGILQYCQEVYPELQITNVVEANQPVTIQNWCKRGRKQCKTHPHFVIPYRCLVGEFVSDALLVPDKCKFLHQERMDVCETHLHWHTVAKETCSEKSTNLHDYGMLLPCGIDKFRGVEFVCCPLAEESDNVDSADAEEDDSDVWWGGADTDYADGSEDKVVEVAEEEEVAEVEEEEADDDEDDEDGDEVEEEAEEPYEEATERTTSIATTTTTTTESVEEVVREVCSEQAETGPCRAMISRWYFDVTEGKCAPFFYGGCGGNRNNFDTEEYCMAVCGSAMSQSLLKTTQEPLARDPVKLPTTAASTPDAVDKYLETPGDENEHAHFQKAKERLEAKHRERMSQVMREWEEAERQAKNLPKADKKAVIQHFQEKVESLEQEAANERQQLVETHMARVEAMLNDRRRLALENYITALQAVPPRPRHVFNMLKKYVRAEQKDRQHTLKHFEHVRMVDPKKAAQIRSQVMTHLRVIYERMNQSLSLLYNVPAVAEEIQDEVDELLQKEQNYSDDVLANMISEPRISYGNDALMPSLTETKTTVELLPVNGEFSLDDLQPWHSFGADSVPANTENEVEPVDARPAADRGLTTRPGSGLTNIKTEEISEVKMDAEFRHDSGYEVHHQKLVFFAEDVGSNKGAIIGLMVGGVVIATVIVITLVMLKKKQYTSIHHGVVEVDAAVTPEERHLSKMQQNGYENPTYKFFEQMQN

B1: Hu-Asp2 expressed in a stable HEK-293 derivative cell line (higher levels of Hu-Asp2) (protein)
chain: ETDEEPEEPGRRGSFVEMVDNLRGKSGQGYYVEMTVGSPPQTLNILVDTGSSNFAVGAAPHPFLHRYYQRQLSSTYRDLRKGVYVPYTQGKWEGELGTDLVSIPHGPNVTVRANIAAITESDKFFINGSNWEGILGLAYAEIARPDDSLEPFFDSLVKQTHVPNLFSLHLCGAGFPLNQSEVLASVGGSMIIGGIDHSLYTGSLWYTPIRREWYYEVIIVRVEINGQDLKMDCKEYNYDKSIVDSGTTNLRLPKKVFEAAVKSIKAASSTEKFPDGFWLGEQLVCWQAGTTPWNIFPVISLYLMGEVTNQSFRITILPQQYLRPVEDVATSQDDCYKFAISQSSTGTVMGAVIMEGFYVVFDRARKRIGFAVSACHVHDEFRTAAVEGPFVTLDMEDCGYNIPQTDESTLMTIAYVMAAICALFMLPLCLMVCQWRCLRCLRQQHDDFADDISLLK
- production of the β-secretase cleavage product CTF-99 (Western blot with antibody C8): both mutant APP variants were proficiently cleaved by Asp2
